The target of the assay is FLAG-cyclin B1 (UniProt P14635). The assay can be described thus: co-IP; MCF7 cells transfected with Myc-BRCA1-Δ11 and FLAG-cyclin B1, synchronised (aphidicolin 0.3 μM 24 h, release 8 h, nocodazole 100 ng/mL 24 h, release 2 h), without or with irradiation (10 Gy); anti-FLAG antibody-conjugated agarose; Western blot with anti-Myc. In general terms: Immunoblotting shows a protein as a band on a membrane.
Sequence of FLAG-cyclin B1 (P14635 whole entry): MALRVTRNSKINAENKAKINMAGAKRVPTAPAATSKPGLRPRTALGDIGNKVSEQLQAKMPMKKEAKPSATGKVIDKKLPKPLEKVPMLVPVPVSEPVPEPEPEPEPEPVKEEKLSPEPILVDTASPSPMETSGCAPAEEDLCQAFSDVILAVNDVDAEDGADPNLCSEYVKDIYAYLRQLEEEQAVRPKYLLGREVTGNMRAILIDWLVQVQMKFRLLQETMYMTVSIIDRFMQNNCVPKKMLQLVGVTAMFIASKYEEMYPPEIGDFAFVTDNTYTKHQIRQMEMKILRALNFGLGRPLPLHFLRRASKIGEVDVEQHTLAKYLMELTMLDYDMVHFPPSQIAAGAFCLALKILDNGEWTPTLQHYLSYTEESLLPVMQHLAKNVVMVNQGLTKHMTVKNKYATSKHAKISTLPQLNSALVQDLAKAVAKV

Sequence of Myc-BRCA1-Δ11 (P38398 whole entry, stated change not applied): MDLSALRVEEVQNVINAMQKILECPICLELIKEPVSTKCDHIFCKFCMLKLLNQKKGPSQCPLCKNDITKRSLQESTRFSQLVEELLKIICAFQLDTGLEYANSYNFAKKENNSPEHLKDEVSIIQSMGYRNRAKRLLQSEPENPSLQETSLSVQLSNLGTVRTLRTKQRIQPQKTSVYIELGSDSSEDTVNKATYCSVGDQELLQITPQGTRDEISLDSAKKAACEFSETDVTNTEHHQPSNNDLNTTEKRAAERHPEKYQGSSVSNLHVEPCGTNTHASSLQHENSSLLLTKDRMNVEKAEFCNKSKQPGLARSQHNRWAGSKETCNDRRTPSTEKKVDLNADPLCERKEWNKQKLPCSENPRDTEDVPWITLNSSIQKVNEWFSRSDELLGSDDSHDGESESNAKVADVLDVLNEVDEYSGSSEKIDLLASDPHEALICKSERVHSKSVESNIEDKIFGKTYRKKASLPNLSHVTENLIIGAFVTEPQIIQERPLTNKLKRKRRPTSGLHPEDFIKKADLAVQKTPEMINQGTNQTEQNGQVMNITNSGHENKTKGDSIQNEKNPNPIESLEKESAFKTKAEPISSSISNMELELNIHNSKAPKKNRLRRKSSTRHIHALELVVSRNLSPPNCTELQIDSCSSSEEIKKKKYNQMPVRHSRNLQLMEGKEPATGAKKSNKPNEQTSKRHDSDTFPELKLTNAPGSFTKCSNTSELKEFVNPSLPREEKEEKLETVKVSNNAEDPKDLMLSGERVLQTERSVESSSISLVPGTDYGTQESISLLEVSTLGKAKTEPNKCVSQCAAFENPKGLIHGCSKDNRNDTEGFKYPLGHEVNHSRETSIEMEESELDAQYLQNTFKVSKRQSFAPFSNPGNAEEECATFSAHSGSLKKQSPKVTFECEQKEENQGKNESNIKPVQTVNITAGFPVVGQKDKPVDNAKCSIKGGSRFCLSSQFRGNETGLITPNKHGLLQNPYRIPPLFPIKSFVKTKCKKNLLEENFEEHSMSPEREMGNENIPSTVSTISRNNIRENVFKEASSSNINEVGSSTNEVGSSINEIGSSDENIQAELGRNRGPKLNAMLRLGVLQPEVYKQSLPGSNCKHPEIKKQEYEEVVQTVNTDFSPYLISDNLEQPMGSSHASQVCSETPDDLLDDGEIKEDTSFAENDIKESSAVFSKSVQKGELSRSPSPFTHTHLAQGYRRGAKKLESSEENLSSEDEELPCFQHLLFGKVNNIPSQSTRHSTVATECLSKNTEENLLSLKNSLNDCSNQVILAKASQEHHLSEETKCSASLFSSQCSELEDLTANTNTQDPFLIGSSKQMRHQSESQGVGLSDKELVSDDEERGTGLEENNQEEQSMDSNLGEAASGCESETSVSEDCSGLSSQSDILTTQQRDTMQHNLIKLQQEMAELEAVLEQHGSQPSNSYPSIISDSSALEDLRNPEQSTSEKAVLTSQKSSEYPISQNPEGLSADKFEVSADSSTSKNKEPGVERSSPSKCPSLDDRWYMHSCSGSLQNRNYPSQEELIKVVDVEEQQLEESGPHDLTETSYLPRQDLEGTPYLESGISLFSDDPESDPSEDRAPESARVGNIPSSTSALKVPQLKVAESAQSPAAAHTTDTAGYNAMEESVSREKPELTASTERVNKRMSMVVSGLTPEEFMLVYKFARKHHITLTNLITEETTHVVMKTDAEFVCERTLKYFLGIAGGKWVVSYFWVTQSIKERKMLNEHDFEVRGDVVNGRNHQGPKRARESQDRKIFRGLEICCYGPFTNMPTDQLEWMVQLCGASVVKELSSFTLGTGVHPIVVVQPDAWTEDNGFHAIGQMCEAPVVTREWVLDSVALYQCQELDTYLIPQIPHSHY

As for “Myc-BRCA1-Δ11 (from UniProt P38398-5 1-721) (natural protein)”, the interaction upon irradiation relative to no irradiation (nocodazole-treated cells) was found to be 214%.

Source of the values: article PMC6191436.
